Source: the RNAGym collection of RNA variant scans (doi:10.1073/pnas.2313332121)
This sample holds only a part of the variants without activity.

B1: TPR 5TU (parent)
chain: GGAUCUUCUCGAUCUAACAAAAAAGACAAAUCUGCCACAAAGCUUGAGAGCAUCUUCGGAUGCAGAGGCGGCAGCCUUCGGUGGCGCGAUAGCGCCAACGUUCUCAACUAUGACACGCAAAACGCGUGCUCCGUUGAAUGGAGUUUAUCAUG

Variants of: B1
Assay: polymerase ribozyme fitness, log enrichment relative to wild type (log ratio); higher = more active; in vitro selection for triplet polymerase activity
Outline: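 Fitness is a logarithmic measure of how a genotype enriched relative to the wild type, with replicate averages weighted by inverse variance. The logarithm uses base 2, and enrichment came from Illumina sequencing of input and output libraries. Those libraries were PCR-built, transcribed mutants of each subunit of a heterodimeric triplet polymerase ribozyme, passed through one triplicate in vitro selection round that included frozen incubation at −7 °C, gel excision of extended constructs and streptavidin-bead capture. Genotypes were kept only if they had ≥10 input reads and ≥1 read per output.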

Going from A52G C85G G141A to C51U G70C C93G, the “polymerase ribozyme fitness (log ratio)” value falls from -1.37 to no more than -4.2.

First: U53A G141A
Second: A52U U82G
The “polymerase ribozyme fitness (log ratio)” value of the first is lower: -1.9 for the first, -1.46 for the second.

Compared with C51U G86U U145G, C54A G83U U134A U148C is lower in “polymerase ribozyme fitness (log ratio)” value: -2.27 for the first, no more than -4.2 for the second.

Going from C51U A52U G94U to C54A C57G A60U C87U C95U G136A, the “polymerase ribozyme fitness (log ratio)” value falls from -2.8 to -4.11.

First: U53A U61G C99U G136A
Second: U53A C75U C103U
The “polymerase ribozyme fitness (log ratio)” value of the first is lower: -3.67 for the first, -3.14 for the second.

C51U U56A G65U G81C G136C A138G G141C A142G and C51U G70A A91C A97C U144C cannot be ordered by “polymerase ribozyme fitness (log ratio)” value: no more than -4.2 for the first, no more than -4.2 for the second.

First: U53A C87A A107C C108A U111G U146C U148A
Second: U53A G86U
The “polymerase ribozyme fitness (log ratio)” value of the first is lower: no more than -4.2 for the first, -2.14 for the second.

Compared with U53A G86C, U53A C118U is higher in “polymerase ribozyme fitness (log ratio)” value: -3.25 for the first, -1.08 for the second.

Compared with A52G U53A, U53G U56A A89G G94A A121G G141U G143A is lower in “polymerase ribozyme fitness (log ratio)” value: -0.907 for the first, no more than -4.2 for the second.

Going from A52G G65A U145A to C54A G58U C99A U145A, the “polymerase ribozyme fitness (log ratio)” value falls from -1.38 to -2.04.

A52U G71C G92A C96G and C51U G67A U77G C116G G126A C129A cannot be ordered by “polymerase ribozyme fitness (log ratio)” value: no more than -4.2 for the first, no more than -4.2 for the second.

Compared with C51U U55G A98U A115G, A52G C54U G58C G86A A89U is lower in “polymerase ribozyme fitness (log ratio)” value: -3.09 for the first, -3.29 for the second.

Going from C54A G86U C105U to U53A G68U G88U U90C, the “polymerase ribozyme fitness (log ratio)” value falls from -2.87 to no more than -4.2.

Going from U53C C95U C125U A147U U148A U151G to A52G C96G, the “polymerase ribozyme fitness (log ratio)” value rises from no more than -4.2 to -2.13.

Going from U53G C123A G126C to A52U G59C U101G A122U U144C, the “polymerase ribozyme fitness (log ratio)” value falls from -1.32 to -2.67.

A52G G83A C118U A150G and A52C G94C are within 0.2 log units of each other in “polymerase ribozyme fitness (log ratio)” value: -2.35 for the first, -2.26 for the second.

C54A G83C C85A and A52C C87A C93U A98U G128U U148G cannot be ordered by “polymerase ribozyme fitness (log ratio)” value: no more than -4.2 for the first, no more than -4.2 for the second.

Going from U53C U139G to A52C G83U U145A, the “polymerase ribozyme fitness (log ratio)” value falls from 0.0757 to -1.8.

Compared with U53A U55A C129U, C51U G80A G81A A150U is higher in “polymerase ribozyme fitness (log ratio)” value: -3.06 for the first, -1.5 for the second.

Compared with U53A G83U, A52G A60G U77G A91U G133U is lower in “polymerase ribozyme fitness (log ratio)” value: -0.881 for the first, no more than -4.2 for the second.

A52C C87A and A52G A113U A150C cannot be ordered by “polymerase ribozyme fitness (log ratio)” value: no more than -4.2 for the first, no more than -4.2 for the second.

Compared with A52C A115G, U53G G136C is lower in “polymerase ribozyme fitness (log ratio)” value: -2.09 for the first, -4.09 for the second.

A52C U148G and U53A U78A C85U U102C cannot be ordered by “polymerase ribozyme fitness (log ratio)” value: no more than -4.2 for the first, no more than -4.2 for the second.

Going from A52G C85U G92A C96A to U53C C54U, the “polymerase ribozyme fitness (log ratio)” value rises from no more than -4.2 to -1.25.

Going from A52U A89C to U53A C69U, the “polymerase ribozyme fitness (log ratio)” value falls from -3.05 to -4.11.

Compared with A52G G58A C72A G83U C96U, A52G C69G G71C is higher in “polymerase ribozyme fitness (log ratio)” value: no more than -4.2 for the first, -2.11 for the second.

First: U53A G84U C103G U148G
Second: C54A C116U G143U
The “polymerase ribozyme fitness (log ratio)” value of the first is lower: no more than -4.2 for the first, -3.09 for the second.

Compared with U53A C85A G124A, A52C U56A G86A U90A A107C is lower in “polymerase ribozyme fitness (log ratio)” value: -2.89 for the first, no more than -4.2 for the second.

Going from A52C C76U U101G to A52U G58U C95U, the “polymerase ribozyme fitness (log ratio)” value rises from -4.01 to -1.52.

First: A52G U77G U82C A91G A106U G140A U144A G152U
Second: A52C G84U C125U
The “polymerase ribozyme fitness (log ratio)” value of the first is lower: no more than -4.2 for the first, -2.64 for the second.

Compared with A52U C85U C96A C116U, C54A C132U is higher in “polymerase ribozyme fitness (log ratio)” value: -2.69 for the first, -2.3 for the second.

C54A G70U A91U C114U A119U A120U and A52U C93A U109C U111G G140C G152A cannot be ordered by “polymerase ribozyme fitness (log ratio)” value: no more than -4.2 for the first, no more than -4.2 for the second.

Going from A52C U145G to U53A C69G G83A G117U U145C, the “polymerase ribozyme fitness (log ratio)” value falls from -1.17 to -3.13.

Going from A52U U55G C87A A119U to A52G U82A C96G, the “polymerase ribozyme fitness (log ratio)” value rises from no more than -4.2 to 0.187.

Compared with U53A A91C U101C, U53A U109G C116A G136C U144C is higher in “polymerase ribozyme fitness (log ratio)” value: no more than -4.2 for the first, -4.07 for the second.

Going from A52G A119G to U53A C105A, the “polymerase ribozyme fitness (log ratio)” value falls from -0.813 to -2.83.

U53A C79G C108U G136A U144G and U53A C54U C57A G62A C85A G126U cannot be ordered by “polymerase ribozyme fitness (log ratio)” value: no more than -4.2 for the first, no more than -4.2 for the second.

Compared with C51U C93G, C51U G94U C114A G140A is lower in “polymerase ribozyme fitness (log ratio)” value: -3.69 for the first, no more than -4.2 for the second.

Going from U53A C54A G58C A64C G126A U135C A138C to C54A C95A, the “polymerase ribozyme fitness (log ratio)” value rises from no more than -4.2 to -1.25.

Compared with A52C G92U C116G, A52U U55A C87G is lower in “polymerase ribozyme fitness (log ratio)” value: -1.7 for the first, no more than -4.2 for the second.

First: U53C C116G
Second: C54A C85G
The “polymerase ribozyme fitness (log ratio)” value of the first is higher: 0.204 for the first, -3 for the second.

Going from A52U G86C G88A C105A G141U to A52G C54U C93A, the “polymerase ribozyme fitness (log ratio)” value rises from no more than -4.2 to -1.98.
